Results: the RNAGym collection of RNA variant scans (doi:10.1093/nar/gkz1192)

B1: CPEB3 Ribozyme (parent)
chain: UAACAGGGGGCCACAGCAGAAGCGUUCACGUCGCAGCCCCUGUCAGAUUCUGGUGAAUCUGCGAAUUCUGCUGUAUAUCUC

Variants of: B1
Assay: self-cleavage, relative activity (ratio to wild type); higher = more cleavage; in vitro, sequencing
Outline: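 Relative activity was defined as the cleaved/total read fraction for a variant divided by the same fraction for the unmutated ribozyme. CPEB3 self-cleaving ribozyme libraries were made by rounds of error-prone PCR, barcoded, and transcribed in vitro with T7 RNA polymerase for 5 hours at 37°C, and cleavage ran through transcription plus a 15 min DNase I step before EDTA. Illumina sequencing of template-switched reverse transcripts gave the reads, and DNA sequencing mapped the barcodes. Averages come from three batches, using variants with at least 5 reads.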

Variant | self-cleavage
U48A U76A | 0.5
U48G G53C | 0.55
U48A U74A | 0.98
U48C U72A | 0.4
U48C U72C | 0.7
C50G U69A | 0.17
C50G U69C | 0.14
U49G U78C | 0.43
U49A G55C | 0.62
U49A G55A | 0.78
U48C C71U | 0.32
U48C C71A | 0.49
U49C A77U | 0.37
U49C A77G | 0.45
U49A U72A | 0.44
U49A U72G | 0.4
U49A U72C | 0.87
C50A U69A | 0.42
C50A U69C | 0.49
U48G A64U | 0.17
U48G A64G | 0.45

Variant | self-cleavage
U49A G73A | 1.28
U48G U67A | 0.38
C50A U60A | 0.27
C50A U60C | 0.13
U49G U69A | 0.36
U49G U69C | 0.21
U49C C62U | 0.33
U49C C62G | 0.46
U49C C62A | 0.17
U48C U76A | 0.72
U48C U76C | 0.67
U48C A64U | 0.27
U48C A64G | 0.41
U48C A64C | 0.18
U49A A56U | 1.19
U49A A56G | 0.59
U49C C71G | 0.19
U49C C71A | 0.17
U49C C71U | 0.23
U48C U54G | 0.38
U48C U54A | 0.71

Variant | self-cleavage
U48C U54C | 0.4
U48G A75G | 0.3
U49A C50A | 0.5
U49A U51A | 0.45
U49A U51C | 0.66
U49G U58C | 0.2
U49A U60A | 0.21
U49A U60C | 0.32
U49G U51C | 0.63
U48C C68A | 0.34
U48C C68G | 0.18
U49G G55U | 0.88
C50G U78C | 0.71
U49A U58A | 0.21
U49A U58C | 0.33
U48A U69A | 0.18
U48A U69G | 0.34
U48A U69C | 0.44
C50U C79U | 1.16
U48C U49G | 0.29
U48C U49A | 0.48

Variant | self-cleavage
U48C U49C | 0.32
U49C C59A | 0.09
U49C C59U | 0.09
U49C U58A | 0.14
U49C U58C | 0.24
U48C C79A | 0.89
U48C C79G | 0.74
U48C C79U | 0.88
U49G U54C | 0.44
U49G A64G | 0.4
U49C C50A | 0.78
U49C C50G | 0.82
U49C C50U | 0.87
U49C G52A | 0.8
U48C G52U | 0.84
U48C G52C | 0.42
U48C G52A | 0.87
U49A U80C | 0.69
U49A U80G | 0.88
U49A U80A | 0.88
C50U A77G | 1.11
